For test [1], the target named is T1, WT SARS2 RBD (SARS-CoV-2 Wuhan (MN908947), UniProt P0DTC2).
T1 construct: not shown: Fc (human IgG1), C-terminal, cleaved
The test can be described thus: SPR. The note with it: both partners purified.

The target in test [2] is T1, WT SARS2 RBD. The test can be described thus: cell-based or functional assay.

One may read the Kd as the concentration at which binding is half-saturated.

B1: aSA3 (VHH)
VHH: QVQLVESGGGLVQPGGSLRLSCAASGFTSDHYALAWFRQAPGKEREGVSCIDSDGNPFYADSVKGRFTGSRDNAKNTVYLQMNSLKLEDTAVYYCAAGLWYGRSLNSFDYDYWGQGTQVTVSS
In the test with WT SARS2 RBD [1], B1 returned a Kd of 0.0519 nM. In addition, the “IC50, neutralisation of WT SARS2 pseudovirus (blocks RBD-ACE2)” value with WT SARS2 RBD [2] came to 0.97 nM.

B2: aRBD-2 (VHH)
VHH: QVQLVESGGGLVQAGGSLRLSCAASGRTYTMGWFRQAPGKEREFVAAMRWSDTDYADSLKGRFTISRDNANNAMYLQMNSLGPEDTAVYYCAAGEAWLARSTHHYDYWGQGTQVTVSS
Consider B2, for which the binding result with WT SARS2 RBD [1] is given as “binds”.

These data come from article PMC9734137 (Cell Discovery, 2022).
